Test results from article PMC13152641.

Key:
[1] = target: T1, CICmin18 WT (human, UniProt Q96RK0-2;Q96RK0-2); assay: X-ray crystallography 2.95 A
[2] = target: CICmin18 R1512H (human, UniProt Q96RK0-2 188-280+=F+1457-1527, R1512H;internal_change); assay: MST
[3] = target: CICmin18 M1519D (human, UniProt Q96RK0-2 188-280+=F+1457-1527, M1519D;internal_change); assay: MST
[4] = target: CICmin18 R1515H (human, UniProt Q96RK0-2 188-280+=F+1457-1527, R1515H;internal_change); assay: MST
[5] = target: CICmin31 R1515H (human, UniProt Q96RK0-2 188-294+1457-1527, R1515H;internal_change); assay: MST
[6] = target: CICmin31 WT (human, UniProt Q96RK0-2 188-294+1457-1527, internal_change); assay: MST
[7] = target: CICmin31 M1519D (human, UniProt Q96RK0-2 188-294+1457-1527, M1519D;internal_change); assay: MST
[8] = target: CICmin31 R201W (human, UniProt Q96RK0-2;Q96RK0-2, R201W); assay: MST
[9] = target: CICmin31 R215W (human, UniProt Q96RK0-2 188-294+1457-1527, R215W;internal_change); assay: MST
[10] = target: T1, CICmin18 WT; assay: MST
[11] = target: CICmin31 R201W (IVT) (human, UniProt Q96RK0-2 188-294+1457-1527, R201W;internal_change); assay: EMSA
[12] = target: CICmin31 WT (IVT) (human, UniProt Q96RK0-2 188-294+1457-1527, internal_change); assay: EMSA
[13] = target: T1, CICmin18 WT; assay: EMSA

B1: ETV5 18-mer (crystal) (dsDNA)
DNA 1: GGTTATGAATGAAAAACC
DNA 2: GGTTTTTCATTCATAACC
[1]
  binding result: binds

B2: ETV5 30-mer (MST) (dsDNA)
DNA 1: GGCGTTTTTTATGAATGAAAAACGTCCTCC
DNA 2: GGAGGACGTTTTTCATTCATAAAAAACGCC
[2]
  apparent K (half saturation): 14.6 nM
[3]
  apparent K (half saturation): 50.3 nM
[4]
  apparent K (half saturation): 16.7 nM
[5]
  apparent K (half saturation): 1430 nM
[6]
  apparent K (half saturation): 226 nM
[7]
  apparent K (half saturation): 32.2 nM
[8]
  apparent K (half saturation): 171 nM
[9]
  apparent K (half saturation): 151 nM
[10]
  apparent K (half saturation): 15.5 nM

B3: ETV5 30-mer (EMSA) (dsDNA)
DNA 1: GGCGTTTTTTATGAATGAAAAACGTCCTCC
DNA 2: GGAGGACGTTTTTCATTCATAAAAAACGCC
[11]
  binding result: binds

B4: random-site 30-mer (EMSA) (dsDNA)
DNA 1: GGCGTTTTTTAGTCGCTGCAAACGTCCTCC
DNA 2: GGAGGACGTTTGCAGCGACTAAAAAACGCC
[12]
  binding result: no binding
[13]
  binding result: no binding
